The nature of this data set: label from the status in PepcDB records.
With “MMSAQRVVRTVRTARAISTALAVAIVLGTGVAWSSVRSFEDGIFHMSAPSLGHGGDDGAIDILLVGLDSRTDAHGNPLSAEELATLHAGDEEATNTDTIILIRVPNNGKSATAISIPRDSYVAAPGLGKTKINGVYGQTRETKRAGLVQAGASPTEAAAAGTEAGREALIKTVADLTGVTVDHYAEIGLLGFALIADALGGVDVCLKEPVYEPLSGADFPAGRQKLNGPQALSFVRQRHDLPRGDLDRVVRQQAVMAALAHRVISGQTLSSPATLKRLEQAVQRSVVLSSGWDIMDFVRQLQKLAGGNVAFATIPVLDGAGWSDDGMQSVVRVDPRQVQDWVVGLLHEQDQGKTDELAYTPAKTTANVVNDTDINGLAAAVSKVLSSKGFTTGSVGNNDGDHVPGSQVRAAKADDLGAQQVAKELGGLPVVADASIAPGSVRVVLANDYSGPGSGLGGSDPNGVVSPARAFNLGSADDTTPPPSPILTAGSDAPECIN”, the protein production entry was “failed”. Take “MMSQISLADLNAADKADFVAALANVVEYSPWIAEKLAGQRPFTGINQLHAALMAAIQSAEPDVQLALIRAHPDLANKTQRAAGLTAESTDEQNSAGLDRLSDAEYAAFERVNNAYREKFGFPYIVCVRRHTKDSVLRDFETRLLNIAKTETRRAIEEIGRISALRLDQLVVADDKLKVHGRLSTHVLDNHAGKPAPGIPVELIELASLGESRVIARTVTNADGRTDQPLIGGRPLPIGRYELRFRVAKYYAERNVPLSEPPFLDEIPLRFAISEPENHYHVPLLVTPWSYATYRGS”: the protein production entry is listed as “failed”. Next, “MMTGRKRGMIMSRRIITIGRQYGSNGRRIAKKLSEKLGIHYYDKELIKLASEQNDISYDELVKVDEKRANPWRYPVEDPAQMESRFRFEPMNDVLFYTQAQIITRLADTEDCIIVGRCANDILKSRPTSRSIFIHAPLDYRLQTVMERTSLEEKEALSLIKKVDKQRKFYYNYYTDKKWEEMSQYDLCLDSSAMSEDEILNVLTALYESIL”: “failed”; “MMTKKDLPLRQLLKLRNSWIAWVVFLVSVVATVLLWQVSIRLVEDRTEARFRTQSLQLKTAIEERLLNYEQVLAGSAGLFAVTGKVTRDQWKEYVDNVDINRYYPGIEGIGYVERIGVREMADHIASVRAEGLYNYLVKPLGTGPYYYPMVYLEPGTERNRKALGYDAFSDPIHRTAMEQARDDAIPTVTGKVVLVQESVAEDQAGFLMYYPVFQGGEIPEIRAERRMMLAGYVFSAFRMNNLIDGIVGLISPFLDVRIYDSGVVARDTLMYGSNLGSLDNEFSFEMSQTIRHGGREWLLQTRSTPAFDYLAADPRPPIVLGSGLAISLLLWLFVLALIRSRLIAQVSAGRYRAITEGAANVTLVMDRRGRPLYASPSSRDILGFDPDKVEALEFEKLVHMDDWSHLQRGFEESMASPGKQMPVVRARVRDADGQWRDMEGTFTAMLSVPGVNGVVLSLRDLTQLKAAQSELHRLAFYDPLTGLANRQLFRDRLNHVVRRSRRSGEAAALMFLDLDGFKRINDTLGHDAGDELLRQVAQWLEGCVREEDSVARLGGDEFVVLLSRISGSEAAGKVAENILRRLCQRIRLNDHEVGVTVSIGITMIPHDSEDAGALMKYADLAMYRAKELGRNTYQFFTPAMNIQAARRLLQQEELATALDGDRFVLHYQPKVDLATQRVIGVEAFLRWHHPEKGLVSAQQFITLAEETGLIIRLGELALRQACIQVQALERAGFESLKMAVNFSVRQLTDSGFLDMIRRVITETGVSPERLELEMPAELLNEDPRMLRELLVSLNDLGVCLILDDFGTGSCSLVALQQLPLDVIKIDHRFIRDIPYNVSATDVASAVIALAHKLHLTVVAEGVETLQQLTFLKSAGCAQCQGNLFSYPLDEDALIGFLIRQYEKPLIS”: “failed”. The result for “MMTLVILLLFLLFCVLVFWISITFSIKYVLIFTAFLFSGLLVYYSFLTIAGLIHRNSKRKDRTLEHYPSVDIFIPAHNEGVVIKDTLEAMAKIEYPGKLTIYLLNDNSQDETPEIGDDFDKAYAHIRHIRVPPGEPKGKSRVLNYGLSISDGEYFCVYDADNQPEPHALRMLVEHAETTEDAVGAVGHVRTVNEKRNWLTRMISLEFQIFQLLMQSGRWLLFQTGSLTGTNMLLRRSALEELGGYDPYAIAEDAELTLRITQKGYLLPIVPESVTWEQEPEHLKILIKQRTRWLQGNLYILEKMFSSLSFFKGKLLVHSLQQVLVYVVFWLFLIISNVWFVIGLLGIFQIQYSIPLLFMWYVAYITYVSQLFSAQSVERTFTPTNIFISVIMYFTYAQLFTYLFIRSLILYLRAKSKKQVIGWDKTVRFKKDK” reads “failed”. With “MMVAVIPAYNEEKNIISVLKDLSDINIDVIVVDDGSTDKTKTIINEFLEKNEFKNKIFPIFKEKNEGKSKALEDGTNYAINLNYDAIAYLDGDYQHKPSDIIPMYEKMKSENADAVFGIRKYKHIPFHRQFSNFLASVIMSITVSVFSGNFHIFRDIQCGFRIIKSEFLKNSYFGDGYSVEHLIALQLAKKNAKITEEYVTIDYHNDAISYITTKKILDVVKEVAKYVLSKH”, the protein production result was “failed”. Next, “MMVETATVVQYQNGKALVRCSVKTACGNCGAKADCGTQLLSSLVKERVPHFELSVNMPLVAGDMVKIGLPEQTLLWSIFWIYVVPLMVLIGSAVGFTQLFANELVVVFMMFICTSMTFFSIKKIIDKKQLSQLNPIFLGRVE”: “failed”; “MMVPHLTTALTGPLLTLEKRLLDNMPRIEHWFRSQWQEYGAPFYASVDLRNAGFKLAPVDTNLFPGGFNNLNPDFLPLCIQAAMVAVEKICPDARRLLLIPENHTRNTFYLRNVHALTHILRQAGLEVRIGSIAPEITAPTFLETHDGHSILLEPVRRKANRLELDNFDSCAILLNNDLSGGIPDILQGLEQSLIPPLHAGWATRRKSNHFTAYDRVVEEFAPLIDIDPWLLNPYFDTCGGLDFHARLGEEQLAEKVDSLLAKIRRKYAEYGVKQEPFVIVKADAGTYGMGIMTVKSADDVRDLNRKQRNKMSVVKEGLKVSEVILQEGVYTFEHLKDAVAEPVIYMMDHFVVGGFYRVHTSRGADENLNAPGMHFEPLTFETPCSTPDCAGAPDAAPNRFYAYGVVARLALLAATIELQETDPDLLDERT”: “not failed”; “MNAEDFPTPDADVESVTPETLKSRIDDGESVTILDARMSGDYEEWHIDGENVESINVPYFHFLEDELDADIIADVPDDREVTVLCAKGGASEYVAGTLADRGYDVHHLEDGMNGWARIYETVEVTDYDGAGTLLQYQRPSSGCLGYLVYDDGEAAIIDPLRAFADRYFDDADELGVDLKYALDTHIHADHISGVRGLDAAGVEGVIPAAAVDRGVTYAAEQSSASPVSQARQDADDLTTAEDGDTFEVGDVTIETVATPGHTTGMTSYLVDDSLLATGDGLFIESVARPDLEEGDEGAPDAARMLYESLQERVLTLPDDTLIGGAHFSDAAEPANDGTYTAPIGQLVEEMDALTMDEDDFVETILADMPPRPANYEDIIATNLGQNTVDDEEAFTLELGPNNCAASQESLAGD”: “failed”. With “MNAMLVGADTLGNIPDVLQNYGITIHRHLSGRNSSHQRKVDRLPAGTDLLILFTDFLGHNVMRHFRELAAEQQIRFIACRRSVCALKQSLTGAGMCEQPCAACPQRSGGDKPVKRKR”, the protein production entry was “failed”.

For the sequence “MNATAPGTPPNPPQSTGTLMPLVSFRRHRRIALMVMAVVVVFGAGFAWVKGKAVYSATAVLYVAPHFVNILKESKELDIPAYDQFIEHQALTVPRYDILLESLAKLGDRRYVWQKKKESDRRAAERLQAALEVKPVKDSYLITVTLESTTPDHLDELVNTIVDTYLEKSRESDSFFARNVRLTSLRERRGQIQGEIDAKLARRTEIAQELSVTTFSEQLASPYDKLLIESQNALAMAQRNRLASEAALALFEDRKSGQDAIAAAAFDTIQKDPGLISLKGSLYKRRSELLQQASGLDPRHPLKIQIDREFKEIDEELNRTVAKLTEQVAKSFIDQRKADVKRDRQIEQELSLQLESFRQKASWFAALYNEALSLSDEIERSRKQLDMIDERIEFFELESRAPGFVRVETYARPPELPVKGGRKKLFAVVLVLALALGAATPVGLDMLDQRIRTTGQVAKIIGHRPVAWFVEHHGSPDLKRMSADQLRRLAIAVNREREMHGSRLVSLTSVKPEAGVTDLALDLAAELGVLGVPTVVVEADPLRPDPRYRGGSAQPGLADLLAGSGEVTAAVVPAAGGLPARLGTGTAPGRQLFAYPALRRCLDELKAAYDLVLIDAPPLLLSADAEYLVEIADVTLLLVGAGQVKPGELRRAAGILEKIDPKAVGFVVTRLEVYRGGGYYAKLAEEFALAASHENGQKHTSRRLEG”, the protein production result is listed as “failed”. Next, “MNDIVEFLKVFIPLFIVIDPFGSLVLFTSMTYNFNEGEKMRATKDAVVYGGIILVMFALAGQFIIYFFGISIEALEMAGGVILLLMAVEMIMEGNRPKTSGSEVTTDLDIGIVPFATPLLAGPGAISLVIILMKGPLIDKIFTFVSIGIIFLMVYIFFKEASIVSKFIGNKAMKAVSRIFGLLLAGFAIQYFIDAVTALFLVH”: “failed”; “MNDIYFDDNRHNWNDRARLHEEAGYGIDKLLSDRDYITPEVEQDKDLIGDLTNKDVLHLQCHLGTDTISLARLGARRVLGLDLSDESLRRARNLAKKAGVSIDFIEGNVYDAREVIVGDFDLIYTSLGVLCWLPDITAWGRVVASLLKSGGKFIIRDDHPMFMTIGEDVRDGFKIEQPYFEQSQPMTWEDEGSYIETDASFEKIKNTRNHQWNHALSEIIMALINAGLQIDLVSESQHAAWNIWPHLMEKCSDGSYRLKKHSEVLPLQFLISAHKPEA”: “failed”. Next, “MNDTLTLDEVVEFAENPEPRCPCVLLLDTSGSMQGAAIEALNQGLLSLKDELMKNSIAARRVEIAIVTFDSHINVIQDFVTADQFNPPILTAQGLTSMGAGIHKALDMVQERKSLYRANGVAYYRPWVFMITDGEPQGELDHLVEQAALRLQGDEVNKRVAFFSVGVENANMTRLNQIAVRTPLKLKGLNFIEMFVWLSASMSAVSHSQIDEQVALPPIGWGSI”: “failed”. Next, “MNDTSNPYATPASALQPTQAVPPVIGDYDFRIGDVISEAWAKIKGVKGILIGAFVVYSVVIQTITFILTLLFGGIGLMSEADPIAFAVGQMIASLVATAVGYPFFTGLTMIGIRRAADQPATFNEMFNYFGMLVPLLLTGLLMMLMVYVGFFLLIIPGLYLSVAYMLALPLVAERGLTPWQALETSRKAISRHWFKVFGLLLVLSLLMLVSMIPLFIGLIWTGPLFVVSMGILYRTIFGVRPLGN”: “failed”.

As for “MNEADMLFSVTVPGSTANLGPGFDSVGMALSRYLKLTVFESDKWSFEAETETVAGIPAGTDNLIYQVAKRTADLYGKEMPPVHVKVWSDIPLARGLGSSAAAIVAAIELADELCGLKLSEADKLHLASLEEGHPDNAGASLVGGLVIGLHEDDETQMIRVPNADIDVVVVIPFYEVLTRDARDVLPKEFPYADAVKASAVSNILIAAIMSKDWPLVGKIMKKDMFHQPYRAMLVPELSKVEHVAEMKGAYGTALSGAGPTILVMTEKGKGEELKEQLALHFPHCEVDALTVPKEGSIIERNPLYQVKSV”, the protein production entry is given as “not failed”.

Regarding “MNEDALTFLSRQHPYDELPAGVLNDVAAQVEKLSVAEGEMIYAYGEPLEGLYIIQSGLVDVRDQSDTQVSMLERGNSFGERGLLADGNAVTSARAVRDTLLIRVPVSLFNTLRTEQSPFQRFFARSSARPDKSATQQTSLAQVSVDALMVRNPVTCTPGTSVVDAAVLMTSRRISCLCITEEDRLTGIVTLRDLVGKALAAGLPPQTPLSDIIQNEPVSLPPTAIGSDVLHMMMEYNLGHLPIVDAGKLVGIVTQTDLTRYQATTAAGLVADAARAQSVEALADITGRIPALLVQLVAAGNRHDVVTRMITDIADVVTRRLLNMAEEKLGPAPLRYLWLACGSQGRQEQTGVSDQDNCLILEDGASRDDIAYFHEMATFVSDGLNACGYVYCPGDMMATNPRWCQPLSVWKEYFNGWIKSPSKEAQMLASVMFDLRPIGGDASLFHGMQQATLEKAAKNSIFTAHMASNSLTHQTPLGLLRGLATISSGDHRKTIDTKLNGVVPVVDLGRMYALQGKLTVANTRARLIAALNNKTISAKGGRDLLEAYDLVAQTRLEHQARLIKEGKAPDNYLPPARLSDFERSHLRDAFVVIKTMQSALMQGRGILG”, the protein production entry was “failed”.

Values taken from a protein production outcome set (Wang et al. 2014).
